The source of these data is patent publication US20230146665A1 (Xencor, published 2023).

The target in the assay is T1, IL18BP (human, UniProt O95998 31-194).
T1 construct: also called ILBP antigen
T1 sequence (looked up): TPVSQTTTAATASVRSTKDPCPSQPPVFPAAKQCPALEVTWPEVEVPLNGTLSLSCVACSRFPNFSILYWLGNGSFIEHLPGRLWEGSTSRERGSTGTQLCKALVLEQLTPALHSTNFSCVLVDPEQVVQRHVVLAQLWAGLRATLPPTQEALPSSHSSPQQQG
Put plainly: Octet (BLI), IL18BP as ligand on the biosensor, IL18 fusion as analyte. The source says: Binding of variant IL18 to IL18 receptors or IL18BP were investigated using Octet, a BioLayer Interferometry (BLI)-based method. Experimental steps for Octet generally include the following: Immobilization (capture of ligand to a biosensor); Association (dipping of ligand-coated biosensors into wells containing serial dilutions of the analyte); and Dissociation (returning of biosensors to well containing buffer) in order to determine the affinity of the test articles. A reference well containing buffer alone was also included in the method for background correction during data processing. In particular, ligands used were IL18R1, IL18R1xIL18RAP heterodimer, or IL18BP, and the analytes were IL18 fusions. Illustrative sequences for these antigens are depicted in FIGS. 1-3 (respectively for human, mouse, and cynomolgus monkey).
On the technique in general: BLI is a label-free optical method that tracks binding on a fibre tip over time.

B1: XENP40253 (Fc fusion)
chain: YFGKLESKLSVIRNLNDQVLFIDQGNRPLFEDMTDSDSRDNAPRTIFIISMYDDSQPRGMAVTISVKSEKISTLSSENKIISFKEMNPPDNIKDTKSDIIFFQRSVPGHDNKMQFESSSYEGYFLASEKERDLFKLILKKEDELGDRSIMFTVQNEDEPKSSDKTHTCPPCPAPPVAGPSVFLFPPKPKDTLMISRTPEVTCVVVDVKHEDPEVKFNWYVDGVEVHNAKTKPREEEYNSTYRVVSVLTVLHQDWLNGKEYKCKVSNKALPAPIEKTISKAKGQPREPQVYTLPPSREEMTKNQVSLTCDVSGFYPSDIAVEWESDGQPENNYKTTPPVLDSDGSFFLYSKLTVDKSRWEQGDVFSCSVMHEALHNHYTQKSLSLSPG
heavy: QVQLQESGPGLVRPSQTLSLTCTVSGFSLTGYGVNWVRQPPGRGLEWIGMIWGDGNTDYNSALKSRVTMLKDTSKNQFSLRLSSVTAADTAVYYCARERDYRLDYWGQGSLVTVSSASTKGPSVFPLAPSSKSTSGGTAALGCLVKDYFPEPVTVSWNSGALTSGVHTFPAVLQSSGLYSLSSVVTVPSSSLGTQTYICNVNHKPSNTKVDKKVEPKSCDKTHTCPPCPAPPVAGPSVFLFPPKPKDTLMISRTPEVTCVVVDVKHEDPEVKFNWYVDGVEVHNAKTKPREEQYNSTYRVVSVLTVLHQDWLNGKEYKCKVSNKALPAPIEKTISKAKGQPREPQVYTLPPSREQMTKNQVKLTCLVKGFYPSDIAVEWESNGQPENNYKTTPPVLDSDGSFFLYSKLTVDKSRWQQGNVFSCSVMHEALHNRFTQKSLSLSPG
light: DIQMTQSPSSLSASVGDRVTITCRASGNIHNYLAWYQQKPGKAPKLLIYYTTTLADGVPSRFSGSGSGTDYTFTISSLQPEDIATYYCQHFWSTPRTFGQGTKVEIKRTVAAPSVFIFPPSDEQLKSGTASVVCLLNNFYPREAKVQWKVDNALQSGNSQESVTEQDSKDSTYSLSSTLTLSKADYEKHKVYACEVTHQGLSSPVTKSFNRGEC
notes: also called K53D single substitution variant; K53D
As to B1, the binding result was “no binding”.
